Measurements taken from US20250136720A1 (Boehringer Ingelheim, published 2025).

Key:
[1] = molecular target: T1, Human CD137 on Jurkat cells (human, UniProt Q07011 24-255); experiment: flow cytometry, Jurkat cells;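 also: binding of antibody-containing supernatants to NF-kB-Luc2/4-1BB Jurkat cells, detected by flow cytometry with a PE-labelled anti-human IgG-Fc secondary antibody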
T1 construct: whole, on cells; also called full-length human CD137-expressing Jurkat cell line; NF-kB-Luc2/4-1BB Jurkat
Procedure: Briefly, HTP supernatants containing recombinant IgG1 (KO) antibodies, were assayed by flow cytometry for binding to the NF-kB-Luc2/4-1BB Jurkat cell line. […] The cells were washed x3 with staining buffer. A Goat F(ab′)2 anti-human IgG-Fc PE secondary antibody was added to the cells and the plate was incubated for 30 min at 4° C. The cells were wash ×3 with staining buffer.

[2] = molecular target: T2, Murine Fibroblast Activation Protein (FAP) on B16 cells (mouse, UniProt P97321 1-761); experiment: flow cytometry, scFv-Fc on B16-FAP cells
T2 construct: B16 cells transduced with murine FAP cDNA; also called B16-FAP
T2 sequence (P97321 other isoform, or with tags, fused parts or gaps): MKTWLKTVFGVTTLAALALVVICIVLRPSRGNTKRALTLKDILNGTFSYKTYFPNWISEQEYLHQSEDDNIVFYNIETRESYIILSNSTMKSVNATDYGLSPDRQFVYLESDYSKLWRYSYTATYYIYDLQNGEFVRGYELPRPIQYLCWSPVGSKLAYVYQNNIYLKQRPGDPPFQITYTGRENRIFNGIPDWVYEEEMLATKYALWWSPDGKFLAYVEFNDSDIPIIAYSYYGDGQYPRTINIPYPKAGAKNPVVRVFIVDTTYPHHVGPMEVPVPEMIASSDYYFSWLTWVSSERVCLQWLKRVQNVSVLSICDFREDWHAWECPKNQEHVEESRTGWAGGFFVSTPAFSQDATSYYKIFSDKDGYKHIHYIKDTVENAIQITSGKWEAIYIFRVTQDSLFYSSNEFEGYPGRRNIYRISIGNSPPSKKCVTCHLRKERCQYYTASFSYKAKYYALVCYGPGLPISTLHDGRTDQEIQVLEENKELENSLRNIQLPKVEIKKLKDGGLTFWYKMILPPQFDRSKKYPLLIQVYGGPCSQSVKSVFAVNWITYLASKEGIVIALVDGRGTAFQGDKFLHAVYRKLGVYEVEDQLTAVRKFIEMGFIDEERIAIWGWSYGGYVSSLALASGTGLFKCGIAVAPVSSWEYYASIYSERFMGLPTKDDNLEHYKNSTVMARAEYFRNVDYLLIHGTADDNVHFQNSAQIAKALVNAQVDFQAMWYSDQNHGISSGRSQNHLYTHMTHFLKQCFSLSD

[3] = molecular target: T3, Human Fibroblast Activation Protein (FAP) on HT1080 cells (human, UniProt Q12884 1-760); experiment: flow cytometry, scFv-Fc on HT1080-FAP cells
T3 construct: HT1080 cells transduced with human FAP cDNA; also called HT1080-FAP; FAP+ HT1080

Row | binding result [1] | MFI [2] [MFI] | MFI [3] [MFI] | Binder
1 | binds |  |  | CD137 #A16 (antibody, human IgG1, V domains shown, human IgG1 KO (L234A/L235A)/kappa chimeric IgG) VH: QVQLQQPGAELVKPGASVKLSCKASGYTFTNFWINWVKQRPGQALEWIGNIYPGNDNTNYNGNFKTKATLTVDRSSSTAYMHLSSLTSKDSAVYYCARGQLGLDYWGQGTTLTVSS VL: DILLTQSPAILSVSPGERVSFSCRASQNIGTTIHWYHQRTNGSPRLLIKFASESISGIPSRFSGSGSGTDFTLSINSVESEDFADYYCQQSNSWPFTFGSGTKLEIK
2 | binds |  |  | CD137 #B1 (antibody, human IgG1, V domains shown, human IgG1 KO (L234A/L235A)/kappa chimeric IgG) VH: QVQLQQPGAELVKPGASVKLSCKASGYTFTNFWINWVKQRPGQALEWIGNIYPGNDNTNYNGNFKTKATLTVDRSSSTAYMHLSSLTSKDSAVYYCARGQLGLDYWGQGTTLTVSS VL: DILLTQSPAILSVSPGERVSFSCRASQNIGTTIHWYHQRTNGSPRLLIKFASESISGIPSRFSGSGSGTDFTLSINSVESEDFADYYCQQSNSWPFTFGSGTKLEIK
3 | binds |  |  | CD137 #B13 (antibody, human IgG1, V domains shown, human IgG1 KO (L234A/L235A)/kappa chimeric IgG) VH: QVQLQQPGAELVKPGASVKLSCKASGYTFTNFWINWVKQRPGQALEWIGNIYPGNDNTNYNGNFKTKATLTVDRSSSTAYMHLSSLTSKDSAVYYCARGQLGLDYWGQGTTLTVSS VL: DILLTQSPAILSVSPGERVSFSCRASQNIGTTIHWYHQRTNGSPRLLIKFASESISGIPSRFSGSGSGTDFTLSINSVESEDFADYYCQQSNSWPFTFGSGTKLEIK
4 | binds |  |  | CD137 #B2 (antibody, human IgG1, V domains shown, human IgG1 KO (L234A/L235A)/kappa chimeric IgG) VH: QVQLQQPGAELVKPGASVKLSCKASGYTFTNFWINWVKQRPGQGLEWIGNIYPGNTGTNYNERFKTKATLTVDISSSTAYMRLSSLTSEDSAVYYCARGQLGLDYWGQGTTLTVSS VL: DILLTQSPAILSVSPGERVSFSCRASQIIGTTIQWYQQRTNGSPRLLIKYASESLSGIPSRFSGSGSGTDFTLSINNVESEDIADYYCQQSHSWPFTFGSGTKLEIK
5 | binds |  |  | CD137 #A17 (antibody, human IgG1, V domains shown, human IgG1 KO (L234A/L235A)/kappa chimeric IgG) VH: QVQLQQPGAELVKPGASVKLSCKASGYTFTNFWINWVKQRPGQALEWIGNIYPGNDNTNYNGNFKSKATLTVDRSSSTAYMHLSSLTSKDSAVYYCARGQLGLDYWGQGTTLTVSS VL: DILLTQSPAILSVSPGERVSFSCRASQNIGTAIHWYHQRTNGSPRLLIKFASESISGIPSRFSGSGSGTDFTLSINSVESEDFADYYCQQSNSWPFTFGSGTKLEIK
6 | binds |  |  | CD137 #A39 (antibody, human IgG1, V domains shown, human IgG1 KO (L234A/L235A)/kappa chimeric IgG) VH: QVQLQQSGAELMKPGSSVKLSCKAPGYKFTDYWIEWVKQRPGHGLDWIGNILPGTINTNSNENFKGKATFTADTSSNTAYMQLSSLTSEDSAVYYCARRSLEYYFDYWGQGTTLTVSS VL: DIVVTQSPASLAVSLGQRATISCRASQSVSTSRYSYMHWYQQKPGQPPRLLINYASNLESGVPARFSGSGSGTDFTLNIHPVEEEDTATYYCQHTWEIPWTFGGGTKLEIK
7 | binds |  |  | CD137 #A25 (antibody, human IgG1, V domains shown, human IgG1 KO (L234A/L235A)/kappa chimeric IgG) VH: DVQLVESGGGLVQPGGSRKLSCAASGFSFSSFGMHWVRQAPEKGLEWVAYISSGSSTIYYADTVKGRFTISRDNPKNTLFLQMTSLRSEDTAMYYCVRDWTDYWGQGTTLTVST VL: QIVLTQSPAIMSASLGEEITLTCSATSSVSYMHWSQQKSGTSPKLLIYTTSNLASGVPSRFSGSGSGTFYSLTISSVEAEDAADYYCHQWTTYPWTFGGGTKLEIK
8 | binds |  |  | CD137 #B30 (antibody, human IgG1, V domains shown, human IgG1 KO (L234A/L235A)/kappa chimeric IgG) VH: QVQLQQSGPQLIRPGASVKISCKASGYSFTGYWIHWVKQRPGQGLEWIGMIDPSDSETRLNQKFKDKATLTVDKSSTTAYMQLSSPTSEDSAVFYCARYRNYGYDGFAHWGQGTLVTVSA VL: DIVMTQSPSSLTVTAGEKVTMSCKSSQSLLNSGNEKNYLAWYQQKPGQPPKLLIYWASTRESGVPDRFTGSGSGTDFTLTISSVQTEDLAVYHCQNDYSLPLTFGAGTKLELK
9 | binds |  |  | CD137 #B31 (antibody, human IgG1, V domains shown, human IgG1 KO (L234A/L235A)/kappa chimeric IgG) VH: QVQLQQSGPQLIRPGASVKISCKASGYSFTGYWIHWVKQRPGQGLEWIGMIDPSDSETRLNQKFKDKATLTVDKSSTTAYMQLSSPTSEDSAVFYCARYRNYGYDGFAHWGQGTLVTVSA VL: DIVMTQSPSSLTVTAGEKVTMSCKSSQSLLNSGNEKNYLAWYQQKPGQPPKLLIYWASTRESGVPDRFTGSGSGTDFTLTISSVQTEDLAVYHCQNDYSLPLTFGAGTKLELK
10 | binds |  |  | CD137 #B4 (antibody, human IgG1, V domains shown, human IgG1 KO (L234A/L235A)/kappa chimeric IgG) VH: DVQLQESGPGLVKPSQSLSLTCTVTGYSITSDYAWNWIRQFPGNRLEWMGYISYSGSTSYNPSLKSRISITRDTSKNQFFLQLNSVTTEDTATYFCARWGYVLDYWGQGTSVTVSS VL: DIVMTQSHKFMSTSEGDRVSITCKASQDVSTAVAWYQQKPGQSPKLLIYWASTRHTGVPDRFRGSGSGTDYTLTISSVQAEDLALYFCQQHYFTPYTFGGGTKLEIK
11 | binds |  |  | CD137 #A49 (antibody, human IgG1, V domains shown, human IgG1 KO (L234A/L235A)/kappa IgG; also called CD137 #7; A49 Parent) VH: QVQLQESGPGLVKPSETLSLTCTVSGGSISSYYWSWIRQPPGKGLEWIGYIYYSGSTNYNPSLKSRVTISVDTSKNQFSLKLSSVTAADTAVYYCARDQSGGGSFQHWGQGTLVTVSS VL: EIVMTQSPLSLPVTPGEPASISCRSSQSLLYSNGYNHLDWYLQKPGQSPQLLIYLGSNRASGVPDRFSGSGSGTDFTLKISRVEAEDVGVYYCMQALQTPPTFGQGTKLEIK
12 | binds |  |  | CD137 #A3 (antibody, human IgG1, V domains shown, human IgG1 KO (L234A/L235A)/kappa chimeric IgG) VH: DVQLQESGPGLVKPSQSLSLTCTVTGYSITSDYGWNWIRQFPGNKVEWMGYISYSGSTSYNPSLKSRISITRDTSKNQFFLQLKSVTTEDTATYYCARSDPYYGISWFAYWGQGPLVTVSA VL: DIQMTQTTSSLSASLGDRVTISCRASQDISNFLNWYQQKPDGTVKLLIYYTSRLHSGVPSRFSGSGSGTDYSLTISNLEQEDIATYFCQQSHTLPWTFGGGTKLEIK
13 | binds |  |  | CD137 #B7 (antibody, human IgG1, V domains shown, human IgG1 KO (L234A/L235A)/kappa chimeric IgG) VH: EVQLQESGPSLVKPSQTLSLTCSVTGDSITSGYWNWIRKFPGNKLEFMGYITYSGSTYYNPSLKSRISITRDTSRNQFYLQVNSVTTEDTATYFCTRYYYYGSTYYAMDYWGQGTSVTVSS VL: NIVLTQSPASLAVSLGQRATISCRVSESVDSYGNSFMHWFQQKPGQSPKLLIYLASNLESGVPARFSGSGSRTDFTLTIDPVEADDAATYYCQQNIEDPPTFGGGTKLEIK
14 |  | 1410 | 72800 | FAP.63.G3 (Fc fusion, Tested as scFv-Fc; orientation, linker and Fc not specified; also called FAP.63.C3; FAP 63.C3) VH: DVQLVESGGGVVRPGESLTLSCAASGFTFSNYDMGWVRQAPGEGLEWVSGIRGRGGSTYYADSVKGRFTISRDSSKNTLYLQMNSLRAEDTAVYYCAKENNRHSFFEYWGLGTLVTVSS VL: EIVLTQSPGTLSLSPGERATLSCRASQSVGHYLAWYQQKPGQAPRLLIYDASNRAIDIPDRFSGSGSGTEFTLTISRLEPEDFAVYYCQQYYNNWPPLTFGGGTKVEIK
15 | binds |  |  | CD137 #A27 (antibody, human IgG1, V domains shown, human IgG1 KO (L234A/L235A)/kappa chimeric IgG) VH: QVQLQQSGAELTRPGASVKLSCKASGYTFTNYWIQWIKQRPGQGLEWIGTIYPENGDTRYTQKFKGKATLTADKSSSTAYMQLSSLASEDSAVYYCARGLLEGAHYWGQGTTLTVSS VL: DILLTQSPAILSVSPGERVSFSCRASQSIGASIHWYQQRTNGSPRLLIKFSSESISGIPSRFSGSGSGTDFTLTINSVESEDIADYYCQQTNSWPTAFGGGTKLEMK
16 | binds |  |  | CD137 #B20 (antibody, human IgG1, V domains shown, human IgG1 KO (L234A/L235A)/kappa chimeric IgG) VH: EVKLVESEGGLVQPGSSMKLSCTASGFTFSDFYMAWVRQVPEKGLEWVANINYDGSSTYYLDSLKSRFIISRDNARNILYLQMSSLKSEDTATYYCAREGDEGWYFDVWGAGTTVTVSS VL: DIVMTQSHKFMSTSVGDRVSITCKASQDVSTAVAWYQQKPGQSPKLLIYSASYRYTGVPDRFTGSGSGTDFTFTISSVQAEDLAVYYCQQHYSNPWTFGGGTKLEIK
17 | binds |  |  | CD137 #B21 (antibody, human IgG1, V domains shown, human IgG1 KO (L234A/L235A)/kappa chimeric IgG; also called CD137 #1; B21 parent) VH: EVKLVESEGGLVQPGSSMKLSCTASGFTFSDFYMAWVRQVPEKGLEWVANINYDGSSTYYLDSLKSRFIISRDNARNILYLQMSSLKSEDTATYYCAREGDEGWYFDVWGAGTTVTVSS VL: DIVMTQSHKFMSTSVGDRVSITCKASQDVSTAVAWYQQKPGQSPKLLIYSASYRYTGVPDRFTGSGSGTDFTFTISSVQAEDLAVYYCQQHYSNPWTFGGGTKLEIK
18 |  | 1840 | 35600 | FAP.65.F1 (Fc fusion, Tested as scFv-Fc; orientation, linker and Fc of this construct not specified) VH: DVQLVESGGGLVHPGGSLRLSCAASTFTFANYIMSWVRQAPGKGLEWVSGITGSSTNTYYTDSVKGRFTISRDNSKNTLYLEMNSLRAEDTAVYYCAKHQLYPYYAMDVWGQGTTVTVSS VL: EIVLTQSPGSLSLSPGERATLSCRASQPIDSYLAWYQQKPGQAPRLLIYGASTRATDIPDRFSGSGSGTEFTLTISSLQSEDFAVYYCQQYYDWPPVTFGGGTKVEIK
19 | binds |  |  | CD137 #A26 (antibody, human IgG1, V domains shown, human IgG1 KO (L234A/L235A)/kappa chimeric IgG) VH: EVQLQESGPSLVKPSQTLSLTCSVTGDSITSGYWNWNRKFPGNKFEYMGYISYSDSAYYNPSLKSRISITRDTSKNQYYLQLNSVTTEDTATYYCTRWGIPFAFWGQGTLVTVSA VL: DIKMTQSPSSMYASLGERVTITCKASQDIDSYLYWFQQKPGKSPETLIYHANRLVDGVPSRFSGSGSGQDYSLTISSLEYEDMGIYYCLQYDEFPYTFGGGTKLEIK
20 | binds |  |  | CD137 #B27 (antibody, human IgG1, V domains shown, human IgG1 KO (L234A/L235A)/kappa chimeric IgG) VH: QVQLQQSGAELVRPGASVKISCKAFGYTFTNHHINWVKQRPGQGLDWIGYINPYNDYSGYNQKFKGRATLTVDKSSNTAYMELSSLTSEDSAVYYCATPGTWEGYYFDYWGQGTTLTVSS VL: DVVMTQTPLSLPVSLGDQASISCRSSQSLVHSNGNTYLEWYLQKPGQSPKVLIYMVSNRFSGVPDRFSGSGSGTDFTLKISRVEAEDLGVYYCFQGSHIPLTFGAGTKLELK
21 | binds |  |  | CD137 #A42 (antibody, V domains shown, human IgG1 KO (L234A/L235A)/kappa chimeric IgG) VH: QVQLQQSGPGLVKPSQTLSLTCAISGDSVSSNSAAWNWIRQSPSRGLEWLGRTYYRSNWYNDYAVSVESRITIKPDTSKNQFSLQLNSVTPEDTAVYYCARMDSGTYLDAFDIWGQGTMVTVSS VL: EIVMTQSPATLSVSPGERATLSCRASQSVGRNLAWYQQKPGQTPRLLIYGASTRATGIPAIFSGSGSGTEFTLTISSLQSEDFAVYYCQQYNYWPPFTFAQGTKLEIK
